Reference: patent JP2005320353A (dated 2005)

biological target: T1, ヒトPTHrP(1-34) (human); assay: ELISA on plate-coated human PTHrP(1-34)
T1 construct: Synthetic peptide, bought (Peninsula; ペプチド研究所); Coated on the plate in the ELISA; also called human parathyroid hormone related peptide (1-34)

Row | Binder | binding result
1 | ヒト型化#23-57-137-1抗体 (H鎖バージョン"a"、L鎖バージョン"j") (antibody, IgG1, V domains shown, Human Cγ1 (IgG1) and human lambda C region; Expressed in COS-7 cells; also called hMBC1HcDNA/pCOS1 + hMBC1Ljλ/pCOS1) VH: QVQLVESGGGVVQPGRSLRLSCAASGFTFSSYGMSWVRQAPGKGLEWVATISSGGSYTYYPDSVKGRFTISRDNSKNTLYLQMNSLRAEDTAVYYCARQTTMTYFAYWGQGTLVTVSS VL: QLVLTQSPSASASLGASVKLTCTLSSQHSTYTIEWYQQQPEKGPKYLMDLKQDGSHSTGDGIPDRFSGSSSGAERYLTISSLQSEDEADYYCGVGDTIKEQFVYVFGGGTKLTVLG | binds
2 | ヒト型化#23-57-137-1抗体 (H鎖バージョン"a"、L鎖バージョン"o") (antibody, IgG1, V domains shown, Human Cγ1 (IgG1) and human lambda C region; Expressed in COS-7 cells; also called hMBC1HcDNA/pCOS1 + hMBC1Loλ/pCOS1) VH: QVQLVESGGGVVQPGRSLRLSCAASGFTFSSYGMSWVRQAPGKGLEWVATISSGGSYTYYPDSVKGRFTISRDNSKNTLYLQMNSLRAEDTAVYYCARQTTMTYFAYWGQGTLVTVSS VL: QLVLTQSPSASASLGASVKLTCTLSSQHSTYTIEWYQQQPEKGPRYVMDLKQDGSHSTGDGIPDRFSGSSSGAERYLTISSLQSEDEADYYCGVGDTIKEQFVYVFGGGTKLTVLG | binds
3 | ヒト型化#23-57-137-1抗体 (H鎖バージョン"a"、L鎖バージョン"t") (antibody, IgG1, V domains shown, Human Cγ1 (IgG1) and human lambda C region; Expressed in COS-7 cells; also called hMBC1HcDNA/pCOS1 + hMBC1Ltλ/pCOS1) VH: QVQLVESGGGVVQPGRSLRLSCAASGFTFSSYGMSWVRQAPGKGLEWVATISSGGSYTYYPDSVKGRFTISRDNSKNTLYLQMNSLRAEDTAVYYCARQTTMTYFAYWGQGTLVTVSS VL: QLVLTQSPSASASLGASVKLTCTLSSQHSTYTIEWYQQQPEKGPRYVMDLKQDGSHSTGDGIPDRFSGSSSGAERYLTISSLQSEDEADYICGVGDTIKEQFVYVFGGGTKLTVLG | binds
4 | ヒト型化#23-57-137-1抗体 (H鎖バージョン"a"、L鎖バージョン"m") (antibody, IgG1, V domains shown, Human Cγ1 (IgG1) and human lambda C region; Expressed in COS-7 cells; also called hMBC1HcDNA/pCOS1 + hMBC1Lmλ/pCOS1) VH: QVQLVESGGGVVQPGRSLRLSCAASGFTFSSYGMSWVRQAPGKGLEWVATISSGGSYTYYPDSVKGRFTISRDNSKNTLYLQMNSLRAEDTAVYYCARQTTMTYFAYWGQGTLVTVSS VL: QLVLTQSPSASASLGASVKLTCTLSSQHSTYTIEWYQQQPEKGPRYLMDLKQDGSHSTGDGIPDRFSGSSSGAERYLTISSLQSEDEADYYCGVGDTIKEQFVYVFGGGTKLTVLG | binds

Other lines, results leading:

Row | binding result | Binder
5 | binds | ヒト型化#23-57-137-1抗体 (H鎖バージョン"a"、L鎖バージョン"q") (antibody, IgG1, V domains shown, Human Cγ1 (IgG1) and human lambda C region; Expressed in COS-7 cells for the ELISA; also made in CHO cells; also called hMBC(q); hMBC1HcDNA + hMBC1Lqλ) VH: QVQLVESGGGVVQPGRSLRLSCAASGFTFSSYGMSWVRQAPGKGLEWVATISSGGSYTYYPDSVKGRFTISRDNSKNTLYLQMNSLRAEDTAVYYCARQTTMTYFAYWGQGTLVTVSS VL: QLVLTQSPSASASLGASVKLTCTLSSQHSTYTIEWYQQQPEKGPKYLMDLKQDGSHSTGDGIPDRFSGSSSGAERYLTISSLQSEDEADYICGVGDTIKEQFVYVFGGGTKLTVLG
6 | binds | ヒト型化H鎖バージョン"a"とキメラL鎖を組み合わせた抗体 (antibody, V domains shown, Humanised H chain version a with human Cγ1; The chimeric L chain has the mouse V region) VH: QVQLVESGGGVVQPGRSLRLSCAASGFTFSSYGMSWVRQAPGKGLEWVATISSGGSYTYYPDSVKGRFTISRDNSKNTLYLQMNSLRAEDTAVYYCARQTTMTYFAYWGQGTLVTVSS VL: QLVLTQSSSASFSLGASAKLTCTLSSQHSTYTIEWYQQQPLKPPKYVMDLKQDGSHSTGDGIPDRFSGSSSGADRYLSISNIQPEDEAMYICGVGDTIKEQFVYVFGGGTKVTVLG
7 | binds | ヒト型化#23-57-137-1抗体 (H鎖バージョン"a"、L鎖バージョン"l") (antibody, IgG1, V domains shown, Human Cγ1 (IgG1) and human lambda C region; Expressed in COS-7 cells; also called hMBC1HcDNA/pCOS1 + hMBC1Llλ/pCOS1) VH: QVQLVESGGGVVQPGRSLRLSCAASGFTFSSYGMSWVRQAPGKGLEWVATISSGGSYTYYPDSVKGRFTISRDNSKNTLYLQMNSLRAEDTAVYYCARQTTMTYFAYWGQGTLVTVSS VL: QLVLTQSPSASASLGASVKLTCTLSSQHSTYTIEWYQQQPEKGPKYVMDLKQDGSHSTGDGIPDRFSGSSSGAERYLTISSLQSEDEADYYCGVGDTIKEQFVYVFGGGTKLTVLG
